This is an account of results in article PMC4215116.

The series can be described thus: Ni-NTA pull-down of conditioned medium, anti-myc blot. Conditions: glycan lost; control: wild-type ECM1-MH.

B1: extracellular matrix protein 1 (ECM1): N444Q (protein)
parent chain: MGTTARAALVLTYLAVASAASEGGFTATGQRQLRPEHFQEVGYAAPPSPPLSRSLPMDHPDSSQHGPPFEGQSQVQPPPSQEATPLQQEKLLPAQLPAEKEVGPPLPQEAVPLQKELPSLQHPNEQKEGTPAPFGDQSHPEPESWNAAQHCQQDRSQGGWGHRLDGFPPGRPSPDNLNQICLPNRQHVVYGPWNLPQSSYSHLTRQGETLNFLEIGYSRCCHCRSHTNRLECAKLVWEEAMSRFCEAEFSVKTRPHWCCTRQGEARFSCFQEEAPQPHYQLRACPSHQPDISSGLELPFPPGVPTLDNIKNICHLRRFRSVPRNLPATDPLQRELLALIQLEREFQRCCRQGNNHTCTWKAWEDTLDKYCDREYAVKTHHHLCCRHPPSPTRDECFARRAPYPNYDRDILTIDIGRVTPNLMGHLCGNQRVLTKHKHIPGLIHNMTARCCDLPFPEQACCAEEEKLTFINDLCGPRRNIWRDPALCCYLSPGDEQVNCFNINYLRNVALVSGDTENAKGQGEQGSTGGTNISSTSEPKEE
Turning to B1, the expression_or_secretion result is reported as “no change”.
